Test results as given in US20030158133.

Tests used:
[1] = test system: Flag-tagged rtPDE3B-137 (full ORF) S421A
[2] = test system: Flag-tagged rtPDE3B containing its full ORF
[3] = test system: Flag-tagged rtPDE3B-137 (full ORF) S421D

PK-A (cAMP-dependent protein kinase)
stimulation of cGMP hydrolytic activity by PK-A (0.03 µM cGMP, with or without PK-A and ATP) [1]: caused a much greater stimulation of activity in S421D than in S421A or the wild-type rtPDE3B
stimulation of cGMP hydrolytic activity by PK-A (0.03 µM cGMP, with or without PK-A and ATP) [2]: caused a much greater stimulation of activity in S421D than in S421A or the wild-type rtPDE3B
stimulation of cGMP hydrolytic activity by PK-A (0.03 µM cGMP, with or without PK-A and ATP) [3]: caused a much greater stimulation of activity in S421D than in S421A or the wild-type rtPDE3B
